Measurements: US20240287172A1 (SCIRHOM, published 2024)

Biological target: T1, hiR2-FL-S562E-T7 (human, UniProt Q6PJF5 1-856)
T1 sequence: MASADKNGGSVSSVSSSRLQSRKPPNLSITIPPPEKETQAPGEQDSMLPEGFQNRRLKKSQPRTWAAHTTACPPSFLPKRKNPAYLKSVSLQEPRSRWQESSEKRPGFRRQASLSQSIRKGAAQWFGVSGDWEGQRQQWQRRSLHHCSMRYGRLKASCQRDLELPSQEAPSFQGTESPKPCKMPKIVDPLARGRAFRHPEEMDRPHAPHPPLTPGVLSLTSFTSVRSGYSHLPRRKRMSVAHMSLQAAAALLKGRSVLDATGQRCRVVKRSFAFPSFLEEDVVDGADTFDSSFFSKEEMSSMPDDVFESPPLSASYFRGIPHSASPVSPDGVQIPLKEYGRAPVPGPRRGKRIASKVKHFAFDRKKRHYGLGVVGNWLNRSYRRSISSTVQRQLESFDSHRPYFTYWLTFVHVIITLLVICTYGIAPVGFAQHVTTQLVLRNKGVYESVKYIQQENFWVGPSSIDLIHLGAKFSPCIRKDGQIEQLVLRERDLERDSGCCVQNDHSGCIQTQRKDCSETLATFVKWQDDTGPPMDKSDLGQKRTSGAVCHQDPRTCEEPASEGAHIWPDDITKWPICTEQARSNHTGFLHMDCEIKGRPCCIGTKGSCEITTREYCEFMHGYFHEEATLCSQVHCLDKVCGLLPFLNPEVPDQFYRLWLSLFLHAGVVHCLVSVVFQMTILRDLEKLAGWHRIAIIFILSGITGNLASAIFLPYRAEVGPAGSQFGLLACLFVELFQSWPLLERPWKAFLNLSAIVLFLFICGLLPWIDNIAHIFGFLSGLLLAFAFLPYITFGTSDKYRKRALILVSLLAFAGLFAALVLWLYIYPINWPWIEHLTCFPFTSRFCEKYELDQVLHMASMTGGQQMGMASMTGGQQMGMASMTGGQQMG
Test: FACS, MEF-DKO cells, 3 µg/ml

B1: antibody 5 (antibody, V domains shown)
VH: QVTLKESGPGILQPSQTLSLTCSFSGFSLSTFGMGVGWIRQPSGKGLEWLAHIWWDDEKYYNSALKSRLTISKATSKNQAFLKIANVDTADTATYYCARISNYGSNYWYFNVWGTGTTVTVSS
VL: QVVLTQSPALMSASPGEKVTMTCSAGSSVSCMYWYQQKPGSSPRVLIYDTSNLASGVPARFTGSGSGTSYSLTISRMEAEDAASYYCQQWNSYPLTFGAGTKLELK
notes: mouse IgG, kappa light chain; also called clone #5; purified antibody 5
For B1, the “loss of binding vs wild type” value was ≥ 60%.

B2: antibody 42 (antibody, V domains shown)
VH: QVTLKESGPGILQPSQTLSLTCSLSGFSLSTFGRGVGWIRQPSGKGLEWLAHIWWDDEKYYNPALKSRLTISKDTSKNQVFLRIANVDTADTATYYCARIQNYGSNYWYFDVWGTGTTVTVSS
VL: LIVLTQSPAIMSASPGEKVTMTCGATSRISYMFWYQQKPGSSPRVLIYDTSNLASGVPVRFSGSGSGTSYSLTISRVEAEDVATYYCQQWNSYPLTFGAGTKLELK
notes: mouse IgG, kappa light chain; also called clone #42; purified antibody 42
B2 was tested, and the “loss of binding vs wild type” value was ≥ 60%.

B3: antibody 44 (antibody, V domains shown)
VH: QVTLKESGPGILQPSQTLSLTCSFSGFSLSTFGMGVGWIRQPSEKGLEWLAHIWWDDDKYYNPALKSRLTISKDTSKNQIFLKITNVDTAETATYYCSRIGNYGSNYWYFDVWGTGTTVTVSS
VL: QIVLTQSPAVMSASPGEKVTMTCTASSSVYYMYWYQQTPGSSPRLLIYDTSNLASGVPVRFSGSGSGTSYSLTISRMEAEDAATYYCQQWNTYPLTFGAGTKLELK
notes: mouse IgG, kappa light chain; also called clone #44; purified antibody 44
With B3 the “loss of binding vs wild type” value was ≥ 30%.

B4: antibody 43 (antibody, V domains shown)
VH: QVALKESGPGILQPSQTLSLTCSFSGFSLSTFGMGVGWIRQSSGKGLEWLANIWWDDDKYYNPALKSRLTISKDASKNQAFLKIANVDTADTATYYCARIGNYGSNYWYFDVWGTGTTVTVSS
VL: QIVLTQSPAIMSASPGERVTMTCSANSRISYMYWYQQKPGSSPRLLIYDTSNLASGVPVRFSGSGSGTSYSLTISRMEAEDAATYNCQQWSSYPLTFGAGTKLELK
notes: mouse IgG, kappa light chain; also called clone #43; purified antibody 43
In the case of B4, the “loss of binding vs wild type” value is reported as ≥ 60%.

B5: antibody 22 (antibody, V domains shown)
VH: QVTLKESGPGILQPSQTLSLTCSFSGFSLSTFGMGVGWIRQPSGKGLEWLAHIWWDDEKYYNSALKSRLTISKATSKNQVFLKIANVDTADTATYYCARISNYGSNYWYFNVWGTGTTVTVSS
VL: QVVLTQSPALMSASPGEKVTMTCSAGSSVSYMYWYQQKPGSSPRVLIYDTSNLASGVPARFTGSGSGTSYSLTISRMEAEDAATYYCQQWNSYPLTFGAGTKLELK
notes: mouse IgG, kappa light chain; also called clone #22; purified antibody 22
In the case of B5, the “loss of binding vs wild type” value is reported as ≥ 30%.

B6: antibody 34 (antibody, V domains shown)
VH: QVTLKESGPGILQPSQTLSLTCSFSGFSLSTFSLGVGWIRQSSGKGLEWLAHIWWDDEKYYNPALKSRLTISKDTSKNQVFLKIANVDAADTATYYCARAYYSKSYYALDYWGQGTSVTVSS
VL: DIQMTQSPSSLSASLGERVSLTCRASQEISGYLSWLQQKPDGTIKRLIYAASTLDSGVPKRFSGSRSGSDYSLAISSLESEDFADYYCLQYANFPFTFGSGTKLEIK
notes: mouse IgG, kappa light chain; also called clone #34; purified antibody 34
For B6, the “loss of binding vs wild type” value was ≥ 60%.

B7: antibody 48 (antibody, V domains shown)
VH: QVQLQQSGTELVRPGTSVKVSCKASGYAFTNYLIEWVKQRPGQGLEWIGVINPGSGFTKYNEKFKGKATLTADKSSSTVYMHLSSLTSEDSAVYFCARGLYRAMDYWGQGTSVTVSS
VL: DIQMTQSPASQSASLGESVTITCLASQTIATWLAWYQQKPGKSPQLLIYGATTLADGVPSRFSGGGSGTKFSFKISSLQAEDFVSYYCQQLYSTPYTFGGGTKLEIK
notes: mouse IgG, kappa light chain; also called clone #48; purified antibody 48
B7 was tested, and the “loss of binding vs wild type” value was ≥ 30%.

B8: antibody 50 (antibody, V domains shown)
VH: QVQLQQSGAELVRPGASVKVSCKASGYAFSNYLIEWVKQRPGQGLEWIGVINPGSGFTKYNEKFKGKATLTADKSSSTAYMQLSSLTSEDSAVYFCARGLYRAMDYWGQGTSVTVSS
VL: DIQMTQSPASQSASLGESVTITCLASQTIGTWLAWYQQKPGKSPQLLIYAAASLADGVPSRFSGGGSGTKFSFKISSLQAEDFVNYYCQQIYSTPYTFGGGTKLEIK
notes: mouse IgG, kappa light chain; also called clone #50; purified antibody 50
B8 was tested, and the “loss of binding vs wild type” value was ≥ 30%.

B9: antibody 3 (antibody, V domains shown)
VH: QVTLKESGPGILQPSQTLSLTCSFSGFSLTTFAMGIGWVRQPSGKGLEWLAHIWWDGEKYNNPVLKSRLTISKDTSKNQVFLRIANVDTPDTATYYCARISSIYYIIDNWGQGTSVTVSS
VL: DIVLTQSPATLSVTPGHSVSLSCRASQSISNNLHWYQKKSHESPRLLIKYVSQSISGIPSRFSGSGSGTDFTLSINSVETEDFGMYFCQQSYNWPLTFGAGTKLELK
notes: mouse IgG, kappa light chain; also called clone #3; purified antibody 3
For B9, the “loss of binding vs wild type” value was ≥ 30%.
